B1: recombinant mouse interleukin 10 (protein, UniProt P18893 19-178, looked up)
Interleukin-10: SRGQYSREDNNCTHFPVGQSHMLLELRTAFSQVKTFFQTKDQLDNILLTDSLMQDFKGYLGCQALSEMIQFYLVEVMPQAEKHGPEIKEHLNSLGEKLKTLRMRLRRCHRFLPCENKSKAVEQVKSDFNKLQDQGVYKAMNEFDIFINCIEAYMMIKMKS
notes: recombinant mouse interleukin 10, Mw ~36 kDa, from R&D Systems
B2: released IL-10: IL-10 released from TNPs (obtained at 48 h post-release) (protein, UniProt P18893 19-178, looked up)
Interleukin-10: SRGQYSREDNNCTHFPVGQSHMLLELRTAFSQVKTFFQTKDQLDNILLTDSLMQDFKGYLGCQALSEMIQFYLVEVMPQAEKHGPEIKEHLNSLGEKLKTLRMRLRRCHRFLPCENKSKAVEQVKSDFNKLQDQGVYKAMNEFDIFINCIEAYMMIKMKS
modifications: released from nanoparticles

Assays:
[1] = Protein encapsulation efficiency and loading content (solvent-free loading, ELISA of unloaded protein); format: physicochemical; details: loaded into TNPs at 4° C. without organic solvents
Experimental: The protein encapsulation efficiency and the loading content were determined by separation of unloaded proteins from TNPs using Amicon Ultra centrifugal filters (MWCO 100 kDa). Unloaded proteins were measured using a protein ELISA kit and Synergy HT multi-mode microplate reader (BioTek Instruments Inc., Winooski, Vt., USA) at […] absorbance.

[2] = In vitro release of proteins from TNPs in PBS; format: physicochemical; details: 100 rpm, 37° C.
Experimental: The protein-loaded nanoparticles were dispersed in 1 mL of phosphate-buffered saline solution (PBS) and subsequently incubated in a shaking incubator at 100 rpm and 37° C. At each time point, the protein released from nanoparticles was isolated using Amicon Ultra-0.5 centrifugal filters (MWCO 50 kDa) at 5,000 rpm for 2 min at 20° C. Then the protein-loaded nanoparticles were resuspended in PBS and incubated in the same manner until the last defined time point. The amount of released protein at each time point was measured at 450 nm using an ELISA kit. The measurements were done in triplicate.

[3] = system: DNFB-induced allergic contact dermatitis; experiment: DNFB-induced allergic contact dermatitis (ACD) model; format: in vivo, C57BL/6 mice; details: 100 μg IL-10/kg i.v. 2 h before DNFB, ear thickness at 36 h
Experimental: C57BL/6 mice were administered i.v. saline, TNPs, IL-10, or IL-10-loaded TNPs (100 μg IL-10/kg). At 2 h post-injection, a 0.3% v/v solution of DNFB (2,4-dinitro-fluorobenzene) in acetone was applied the mice to the dorsal and ventral aspects of ear skin. Ear thickness was measured using an engineer's micrometer (Mitutoyo) at 36 h. The change of ear thickness is calculated as the difference between the treated ear and the contralateral ear treated with acetone alone.
Ears were fixed in a 10% formalin solution, embedded in paraffin, and submitted for histological analysis by haematoxilin and eosin staining to the Harvard Rodent Histopathology Core.
For ear-skin digestion, the dorsal and ventral aspects of the ear were mechanically separated before mincing and placing into a digestion mix consisting of DMEM (Gibco) supplemented with HEPES (Invitrogen), 2% FCS, 200 μg/mL Liberase TM (Roche), 10 μg/mL DNase I (Roche), and 5 mg/mL Collagenase D (Roche). Ears were digested for 80 minutes at 37° C. in gentleMACS tubes (Miltenyi) with gentle agitation in freshly prepared digestion mix. After enzymatic digestion, the mixture was processed using a gentleMACS homogenizer (Miltenyi) in order to obtain a cell suspension, which was then filtered through a 70 μm cell strainer (BD). Cells were then resuspended in FACS buffer for analysis. […]

[4] = system: intracellular ROS in LPS-stimulated RAW 264.7 macrophage cells; experiment: Inhibition of intracellular ROS in LPS-stimulated macrophages (DCFH2-DA); format: cell-based
Experimental: To analyze the inhibitory effect of IL-10 on intracellular reactive oxygen species (ROS) generated from lipopolysaccharide (LPS)-stimulated macrophage cells, RAW 264.7 macrophage cells were seeded on a 24-well tissue culture plate at a density of 2×10^4 cells per well and then allowed to grow for 12 h. The cells were pre-treated with IL-10 at various concentrations (1 to 100 ng/mL) for 2 h and 24 h at 37° C. Then the medium was replaced with LPS solution (100 ng/mL), and the cells were further incubated for 4 h and 24 h at 37° C. The cells were then washed with PBS and incubated with 10 μM ROS detection reagent (DCFH2-DA) for 90 min at 37° C. Fluorescence intensity was measured using a Synergy HT multi-mode microplate reader with ex/em 485/528 nm filter (BioTek Instruments Inc).
In order to determine the bioactive integrity of IL-10 released from or loaded into TNPs, cells seeded on a 24-well tissue culture plate (2×10^4 cells/well) were pre-treated with native IL-10, IL-10 released from TNPs (obtained at 48 h post-release), or IL-10-loaded TNPs at 50 ng/mL concentration for 24 h at 37° C. Next, the medium was replaced with LPS solution (100 ng/mL), and the cells were stimulated with LPS for 24 h at 37° C. After washing with PBS, intracellular ROS was measured using the detection method mentioned above. […]

[5] = mouse, in vivo, iv
Experimental: At 5 min, 30 min, 1 h, 2 h, 4 h, 8 h, 12 h, and 24 h post-injection, blood samples (0.5 mL) were drawn for serum protein concentration analysis. Next, the blood samples were placed at 4° C. overnight to allow the formation of a blood clot and centrifuged under 2,000×g for 15 min at 4° C. The serum samples were stored at −80° C. and analyzed using an ELISA kit. […] The AUC (area under the serum concentration-time curve) and AUMC (area under the first moment curve) were calculated using the trapezoidal rule.

[6] = system: STAT3 and phosphorylated STAT3 (P-STAT3 at Tyr705); experiment: Western blot of STAT3 and P-STAT3 in unstimulated macrophage cells; format: cell-based; details: 20 ng/mL, 24 h; for Total levels of STAT3: β-Actin reference
Experimental: To determine the bioactivity of IL-10 in unstimulated cells, macrophage cells seeded on a 6-well tissue culture plate (5×10^5 cells/well) were treated with IL-10 (native IL-10 or released IL-10 at 20 ng/mL) and incubated for 24 h at 37° C. Then the cells were washed with ice-cold PBS three times and harvested by scraping into Eppendorf tubes, followed by centrifugation at 12,000 rpm for 5 min at 4° C. For protein extraction, the cells were lysed in 200 μL of protein extraction reagent (Fisher Scientific, Pittsburgh, Pa., USA) supplemented with protease inhibitor cocktail and phosphatase inhibitor cocktail (Sigma-Aldrich), and then centrifuged at 12,000 rpm for 10 min at 4° C. to remove the nuclei. Next, protein concentration was measured using a Coomassie Plus-Bradford™ assay with bovine serum albumin as the protein standard. The cell lysates (with 30 μg of protein) were mixed with 4× Laemmli Sample Buffer (Bio-Rad), and the mixture was boiled for 7 min at 95° C. […] Then the membranes were blocked with Tris-Buffered Saline-0.1% Tween 20 (TBST) solution containing 5% BSA for 2 h at 4° C. on a shaker. The primary antibodies (1:1000 dilutions) in TBST with 3% BSA were incubated with the membranes overnight at 4° C. on a shaker. After that, the membranes were washed with TBST solution four times (each 10 min) and then incubated with secondary antibody (1:10,000 dilutions) in TBST with 3% BSA for 1 h at room temperature on a shaker. Finally, the membranes were washed with TBST solution five times and visualized using Amersham ECL prime western blotting detection reagent (GE Healthcare Life Sciences, Pittsburgh, Pa., USA). The primary and secondary antibodies used in this study were from Cell Signaling Technology (Danvers, Mass., USA) as follows: β-Actin (8H10D10) Mouse mAb, Stat3 (124H6) Mouse mAb, and Phospho-Stat3 (Tyr705) (3E2) Mouse mAb as a primary antibody, and anti-mouse IgG (HRP-linked) antibody as a secondary antibody.

[7] = system: sIL-1Ra gene expression; experiment: qPCR of sIL-1Ra in LPS-stimulated macrophage cells; format: cell-based; details: LPS 500 ng/mL 4 h, then IL-10 20 ng/mL 2 h
Experimental: (§1) Macrophage cells were seeded on a 6-well tissue culture plate (5×10^5 cells/well) and maintained for 12 h. The cells were treated with LPS (500 ng/mL) for 4 h, the medium was replaced with IL-10 solution (native IL-10 or released IL-10 at 20 ng/mL), and the cells were incubated for 2 h at 37° C. Next, the cells were washed with PBS and harvested by scraping, followed by centrifugation at 2,000 rpm for 5 min at 4° C. The isolated cell pellets were used to prepare the total RNA using the RNeasy® Mini Kit (QIAGEN, Valencia, Calif., USA) according to the manufacturer's protocol. For the preparation of cDNA, the extracted RNA solution (1 μg/5 μL) was then mixed with 0.5 μL of Oligo (dT) 15 primer (Promega, Madison, Wis., USA) and then reacted at 70° C. for 5 min using the Bio-Rad iCycler PCR Thermal Cycler (Bio-Rad Laboratories, Inc., Hercules, Calif., USA). The mixture was subsequently placed on ice for 5 min and mixed with various components to a final volume of 20 μL: nuclease-free water (5.6 μL), 10 mM dNTP mixture (Promega, 1 μL), 25 mM MgCl2 (Promega, 2.4 μL), ImProm-II™ reverse transcriptase (Promega, 1 μL), ImProm-II™ 5× reaction buffer (Promega, 4 μL), and RNasin® Plus RNase inhibitor (Promega, 0.5 μL). […] The relative gene expression levels were calculated using the ΔΔCt method and normalized to the expression of the reference gene (β-Actin). […]

[8] = system: TNF-α and IL-12 gene expression; experiment: qPCR of proinflammatory cytokines in LPS-stimulated macrophage cells; format: cell-based; details: LPS 500 ng/mL 4 h, then IL-10 20 ng/mL 2 h
Experimental: as §1

Molecule	Encapsulation efficiency [1] [%]	Loading content [1] [wt %]	Release profile from TNPs [2]	Ear swelling [3]	Inhibitory effect on ROS production, dose response ([4]; IL-10 1-100 ng/mL, LPS 100 ng/mL, pre-treatment)	Clearance [5] [mL/min/kg]	Improvement of half-life versus IL-10 alone [5] [fold]	T1/2 terminal [5] [min]	Vss [5] [L/kg]	P-STAT3 (Tyr705) level [6]	Total levels of STAT3 [6]	Increase of sIL-1Ra mRNA expression compared to LPS alone [7]	Inhibitory effect on ROS production, pre-treatment (IL-10→LPS) ([4]; 50 ng/mL IL-10 24 h, then 100 ng/mL LPS 24 h)	Reduction of TNF-α and IL-12 expression [8]
lysozyme: lysozyme from chicken egg whites, model protein loaded into TNPs (1:20)	90	1.8	controlled-release kinetics up to a week											
B1				reduction of ear swelling compared to the saline-treated control	dose-dependent inhibition effect	32.9928	5.9	15	0.70727	clear band	slightly increased	1.5 fold		
B2										almost identical	almost identical	effects identical to those of the native protein	almost no statistical difference between the released IL-10 and native IL-10	ca. 2.5 fold
